How the values were obtained:
[1] = target: T1, human activated protein C (human, UniProt P04070 43-197; P04070 212-461); assay: SPR (Biacore), 1:1 binding model
T1 construct: also called human aPC; human APC

cyno activated protein C [2] = target: T2, cyno activated protein C (cyno (monkey)); assay: SPR (Biacore), 1:1 binding model
T2 construct: also called cyno aPC; cyno APC

[3] = target: T1, human activated protein C; assay: ELISA, coated antigen
human Protein C = target: T3, human Protein C (human, UniProt P04070 43-461); assay: ELISA, coated antigen
T3 construct: Zymogen used as negative control in the ELISA; also called human PC; hPC

cyno activated protein C [4] = target: T2, cyno activated protein C; assay: ELISA, coated antigen

Row | Binder | Kd [1] | koff [1] | kon [1] | Kd (cyno activated protein C [2]) | koff (cyno activated protein C [2]) | kon (cyno activated protein C [2]) | EC50 [3] | binding result (human Protein C) | EC50 (cyno activated protein C [4])
1 | Hu1573-4 (antibody, V domains shown, Humanized IgG, human gamma 1 / kappa constant regions by vectors pCP-hCg1 and pCP-hck; also called H1573VH.1B + H1573Vk.2A) VH: EVQLVESGGGLVQPGGSLRLSCAASGFTFSNYYLNWVRQAPGKGLEWVGDIRLKSNNYEKHYAESVKGRFTISRDDSKNSVYLQMNSLKTEDTAVYYCIREGDYFDYWGQGTTVTVSS VL: DIVLTQTPLSLSVTPGQPASISCRASESVDSFGATFMHWYLQKPGQPPQLLIYLASNLESGVPDRFSGSGSGTDFTLKISRVEAEDVGVYYCQQNNEDPYTFGQGTKLEIKR | 5.1 nM | 0.00772 s⁻¹ | 1.52e+06 M⁻¹ s⁻¹ | 14.2 nM | 0.0105 s⁻¹ | 743000 M⁻¹ s⁻¹ | 0.583 nM | no binding (tested: 20 nM) | 0.904 nM
2 | Hu1573-6 (antibody, V domains shown, Humanized IgG, human gamma 1 / kappa constant regions by vectors pCP-hCg1 and pCP-hck; also called H1573VH.1C + H1573Vk.2) VH: EVQLVESGGGLVQPGGSLRLSCAASGFTFSNYYLNWVRQAPGKGLEWVADIRLKSNNYEKHYAESVKGRFTISRDDSKNSLYLQMNSLKTEDTAVYYCIREGDYFDYWGQGTTVTVSS VL: DIVMTQTPLSLSVTPGQPASISCRASESVDSFGATFMHWYLQKPGQPPQLLIYLASNLESGVPDRFSGSGSGTDFTLKISRVEAEDVGVYYCQQNNEDPYTFGQGTKLEIKR | 5.94 nM | 0.00848 s⁻¹ | 1.43e+06 M⁻¹ s⁻¹ | 11.3 nM | 0.00707 s⁻¹ | 627000 M⁻¹ s⁻¹ | 0.274 nM | no binding (tested: 20 nM) | 0.9 nM
3 | 1573 Chimeric (antibody, V domains shown, IgG; also called chimera 1573; 1573VH (chimeric) + 1573Vk (chimeric)) VH: EVKLEESGGGLVQPGGSMKLSCVASGFTFSNYYLNWVRQSPEKGLEWVADIRLKSNNYEKHYAESVKGRFTISRDDSKSSVYLQMNNLRAEDTGIYYCIREGDYFDYWGQGTTLTVSS VL: NIVLTQSPASLAVSLGQRATISCRASESVDSFGATFMHWYQQKPGQPPKLLIYLASNLESGVPARFSGSGSRTDFTLTIDPVEADDAATYYCQQNNEDPYTFGGGTKLEIKR | 3.49 nM | 0.00811 s⁻¹ | 2.32e+06 M⁻¹ s⁻¹ | 13.8 nM | 0.00766 s⁻¹ | 555000 M⁻¹ s⁻¹ | 0.334 nM | no binding (tested: 20 nM) | 0.83 nM
4 | 1573 mouse (antibody, V domains shown, Parental murine monoclonal antibody; also called mouse aPC monoclonal antibody 1573; HAPC1573) VH: EVKLEESGGGLVQPGGSMKLSCVASGFTFSNYYLNWVRQSPEKGLEWVADIRLKSNNYEKHYAESVKGRFTISRDDSKSSVYLQMNNLRAEDTGIYYCIREGDYFDYWGQGTTLTVSS VL: NIVLTQSPASLAVSLGQRATISCRASESVDSFGATFMHWYQQKPGQPPKLLIYLASNLESGVPARFSGSGSRTDFTLTIDPVEADDAATYYCQQNNEDPYTFGGGTKLEIKR | 5.49 nM | 0.0052 s⁻¹ | 948000 M⁻¹ s⁻¹ | 21.1 nM | 0.00725 s⁻¹ | 344000 M⁻¹ s⁻¹ | – | – | –

Other lines, results leading:

Row | Kd [1] | koff [1] | kon [1] | Kd (cyno activated protein C [2]) | koff (cyno activated protein C [2]) | kon (cyno activated protein C [2]) | EC50 [3] | binding result (human Protein C) | EC50 (cyno activated protein C [4]) | Binder
5 | 6.15 nM | 0.00845 s⁻¹ | 1.37e+06 M⁻¹ s⁻¹ | 20.2 nM | 0.00452 s⁻¹ | 225000 M⁻¹ s⁻¹ | 0.288 nM | no binding (tested: 20 nM) | 0.889 nM | Hu1573-15 (antibody, V domains shown, Humanized IgG, human gamma 1 / kappa constant regions by vectors pCP-hCg1 and pCP-hck; also called H1573VH.1F + H1573Vk.2) VH: EVQLVESGGGLVQPGGSLRLSCAASGFTFSNYYLNWVRQAPGKGLEWVADIRLKSNNYEKHYAESVKGRFTISRDDSKSSVYLQMNSLKTEDTAVYYCIREGDYFDYWGQGTTVTVSS VL: DIVMTQTPLSLSVTPGQPASISCRASESVDSFGATFMHWYLQKPGQPPQLLIYLASNLESGVPDRFSGSGSGTDFTLKISRVEAEDVGVYYCQQNNEDPYTFGQGTKLEIKR
6 | 6.49 nM | 0.00896 s⁻¹ | 1.38e+06 M⁻¹ s⁻¹ | 15.6 nM | 0.0042 s⁻¹ | 269000 M⁻¹ s⁻¹ | 0.687 nM | no binding (tested: 20 nM) | 1.47 nM | Hu1573-11 (antibody, V domains shown, Humanized IgG, human gamma 1 / kappa constant regions by vectors pCP-hCg1 and pCP-hck; also called H1573VH.1D + H1573Vk.2B) VH: EVQLVESGGGLVQPGGSLRLSCAASGFTFSNYYLNWVRQAPGKGLEWVGDIRLKSNNYEKHYAESVKGRFTISRDDSKSSLYLQMNSLKTEDTAVYYCIREGDYFDYWGQGTTVTVSS VL: DIVMTQTPLSLSVTPGQPASISCRASESVDSFGATFMHWYLQKPGQPPQLLIYLASNLESGVPDRFSGSGSRTDFTLKISRVEAEDVGVYYCQQNNEDPYTFGQGTKLEIKR
7 | 6.33 nM | 0.00857 s⁻¹ | 1.36e+06 M⁻¹ s⁻¹ | 18.5 nM | 0.00471 s⁻¹ | 255000 M⁻¹ s⁻¹ | 0.445 nM | no binding (tested: 20 nM) | 0.853 nM | Hu1573-7 (antibody, V domains shown, Humanized IgG, human gamma 1 / kappa constant regions by vectors pCP-hCg1 and pCP-hck; also called H1573VH.1C + H1573Vk.2A) VH: EVQLVESGGGLVQPGGSLRLSCAASGFTFSNYYLNWVRQAPGKGLEWVADIRLKSNNYEKHYAESVKGRFTISRDDSKNSLYLQMNSLKTEDTAVYYCIREGDYFDYWGQGTTVTVSS VL: DIVLTQTPLSLSVTPGQPASISCRASESVDSFGATFMHWYLQKPGQPPQLLIYLASNLESGVPDRFSGSGSGTDFTLKISRVEAEDVGVYYCQQNNEDPYTFGQGTKLEIKR
